# Assay results published in a protein production outcome set (Wang et al. 2014).
# Assay: label from the status in PepcDB records
# 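Note: failed if final PepcDB status was selected cloned or expressed and not failed if soluble or beyond.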
row,Sequence,protein production
1,DDANVVRDRDLEVDTTLKSLSQQIENIRSPEGSRKNPARTCRDLKMCHSDWKSGEYWIDPNQGCNLDAIKVFCNMETGETCVYPTQPSVAQKNWYISKNPKDKRHVWFGESMTDGFQFEYGGQGSDPADVAIQLTFLRLMSTEASQNITYHCKNSVAYMDQQTGNLKKALLLKGSNEIEIRAEGNSRFTYSVTVDGCTSHTGAWGKTVIEYKTTKSSRLPIIDVAPLDVGAPDQEFGFDVGPVCFL,failed
2,DDLLIVRGVNLYPSEIEHAVLDINGVAPYYRIDLYEEDNLDVMELTVERAEGSSKDHSELRDDVLSRLQSVLSFTPDQLNLVNPGTIERTEVGKIQRVYDHRN,failed
3,DDNNAAEVDRQVAQDSAEPKTGENAAAGDSSSTNKNAEKIVAVDISAETEKTYLTHVANDMVIPAYADAAKQSDLLHDLAQKHCQKAPVSGDELQALRDQWLVLAQAWASAEMVNFGPATASMSNLYINYYPDERGLVHGGVADLITANPALTAEQLANESAVVQGIPGLEEALYANDSLDAGQCAYVMSASSALGTRLKDIEKNWQQNAIKLLAIDKTAESDQGLNQWFNSLLSLVETMKSNAIEQPLGLSGKAKGHLPAATAGQSRAIINAKLATLNKAMTDPVLTAILGSNNENTVADTLSTALADTTALLAQMPEDLATADKATQQELYDHLTNITRLIKSQLIPTLGIRVGFNSTDGD,not failed
4,DDNSYSLGDIWIAVATVVPEGNNVYYLRLDDGDKLWPAATNYPNYQPKPNQRALVNFTILADSTQSNLGGFSHYIKVNAIHNILTKSIAKNEGAANDSIYGTDPVSIYNNNMWIGDGYLNIYFETLWGGKTAHFINLIQPDAENDPYTLEFRHNAYDDPQYTIGAGRVAFNLSSLPDTKGETVDLVVNYWTSEGKQAYKLKYNSDKTKMEDTSQGYTNDSISNITDMK,not failed
5,DEWTDVKKVMALGFFDGVHLGHQAVIKQAKQIAEEKGLQTAVLTFDPHPSVVLSNIRKQVKYLTPLEDKAEKMANLGVDIMYVVRFTTQFSELSPRAFVDNYLVALNVKHVVAGFDYSYGKKGEGKMTELENYANGRFEVTIVDKQTAASDKISSTNIRRAITEGELEEANQLLGYP,not failed
6,DGKLYTLNYGKVSSIALDPIEKKPLFHFWPGSCAFSIGTVGCNMHCKHCQNWEISQADESFPYLQDATPESIVRLARHYECESIAYTYNEPTIWYEFVLDTAKLAKKEGLNNILVTNGYINEEPFRELAKYIDAMNIDIKAFNDKFYMKISSVPSGEPSRRTAVIAKKEFGIHVELTYLIIPTLNDNEEEIRRFARWVVEELGDDTPVHFSRFFPHYKLLNLPPTPIQTLEKAYKIAKEEGLKFVYLGNVPGHEGENTYCPRCGKLLIERWGFEILRYEIKDGKCKY,failed
7,DGRCISLLKILMTNFCIFDCAYCVNRVSSRVERARFSVEEVVTLTVEFYRRNYIEGLFLSSGIIRSPDDTMADMVRIAKTLREREHFRGYIHLKTIPDAAPELIEQAGLYADRLSINVELPTEAGLDRFAPEKSATGIRKAMAEVRLKREASREPSFSGRRPSRFA,failed
8,DGVRLLEELGAINAEAKDAKKRLTSIGRQLARLPIDPRLARMVLEAPKYGALKEVMIIAAALSIQDPRERPSDKQQSSDDKHRRFFHEESDFLTFV,failed
9,DHPEEGDTAPDFTRPLVNDEFWEDESLASVCADSDRVVLVFHAMDGAFPATYIWNEIRDRAWHEQATVVGISISTPYEHKQLLKEREIEGDYRLFSDPANGVAQQYSIDMALDGMAGIEEPRPSVFVLDSDRTIEYAWVAQEWPDFPDYDDVEAQL,failed
10,DIDTFYSKVHNIIGQLINAKNFFIAKYEKDSDTLSFSYYVDEKTSNLAKDFKPRKLSNRYSELVLRRRETVLLTYQEMMSLHLEGETKKPQDDIHSWLGVPLIYSGQLLGVMVLQSYYYKTTYNQQDAELLNFVSNHVSAAIKRRELAD,failed
11,DIQVITQTGVPGQPLNFKAEPESETSILLSWTPPRSDTIANYELVYKDGEHGEEQRITIEPGTSYRLQGLKPNSLYYFRLAARSPQGLGASTAEISARTMQS,not failed
12,DKDNTDEPKETAKALGKLASESKKEILLESAYLIFDDNQLKGWQALINTGVEIKALTNSMASNDLTTNHSGYAGRRQDMLEHGIQLYELKPETELCEESTKDVSKCAPILPYGLHAKSAVFDDKIASIGSFNFNLRSTYLNTESILIIENQKIAEQLTQDIEHAMDEENSWHLKLQEGDVRWYSGDKSWESEPETGRWERFQSGFLQLLPIE,failed
13,DLLDPETWQFIRDSARHFPPDSDRLPLAEQRALHAGLCRAFRAPLPPDVTLTDRTFGTRPCRLYEPAAPAGTVLFLHGGGFVLGGLDAFDDLCAEIAAGTGLRTVAVDYRLAPEYPHPEDFHDALRAAQAVAQAFPGPLVLMGEDAGGALSASFAHALRGRRALAGQVLVCPMLGGALDRVSALTHATAPMLSRQDVLRMGALRHGGREPAADPTADALRDTDFRGLPPTLIVTAQCDPLTDDGRAYRDAIRAAAGRARWIEEPGLVHGFLRARHRVPRAAASFARILQAASAMAHDR,failed
14,DLNLPIYPVKGYSLTLPVTNSDGAPVSTVLDESYKVAITRFDNRIRVGGMAELSGYEIKLPEKRRETLALVVNDLFPEGGDLSQASFWSGLRPMTPDSTPLIGRTRFDN,failed
15,DNKKIILEFSSPNTNKPLHVGHLRNDVIGESLSRILKAVGAKITKINLINDRGVHICKSMLAYKKFGNGITPEKAFKKGDHLIGDFYVKYNKYSQENENAEKEIQDLLLLWEQKDVSTIELWKKLNKWAIEGIKETYEITNTSFDKIYLESEIFKIGKNVVLEGLEKGFCYKREDGAICIDLPSDSDEKADTKVKQKVLIRSNGTSIYLTQDLGNIAVRTKEFNFEEMIYVVGSEQIQHFKSLFFVAEKLGLSKNKKLIHLSHGMVNLVDGKMKSREGNVIDADNLISNLIELIIPEMTQKIENKESAKKNALNIALGAIHYYLLKSAIHKDIVFNKKESLSFTGNSGPYIQYV,failed
16,DPKEGVQYEVLSTSLENDGMAPVTEVFALSCGHCRNMENFLPVISQEAGTDIGKMHITFNQSAHIASMFYYAAEMQVDGAPDHAFMEDLFAATQMGEGTTLTEQQEAYSKAFTSRGLVSPYDFNEEQRDTLIKKVDNAKMLSEKSGISSVPTFVVNGKYNVLIGGHDDPKQIADTIRYLLEK,not failed

row,Sequence,protein production
1,DQEVRLENRITFQLELVGLERVVRISAKPTKRLQEALQPILAKHGLSLDQVVLHRPGEKQPMDLENPVSSVASQTLVLDTPPDAKMSEARS,not failed
2,DRSRLQCYSEDVTEYRKMEQGLNDLHHRLQAYREYSATGFLLVDARTKTVVEANSAFCQLLGYEESEVLDFTLYQLIAAERPVIEELLINLETQNYLSVPELEYRNREGQTVQVKGEVYRLPWEDREVYCFVMRT,failed
3,DSASQAEQFLKLVHADKLTVPVYAQVQQMLAQRFAQAKAPESKKAVLERYQAKANAELDRAIGWDKIKPELIKLYTTNFTESELKDLNAFYQSPLGKKVLEKMPRLTAESAQLTQAKLQGAVEPVNKLMADMDKELGVAAPAQKKK,not failed
4,DSFKNLENKYDGKIGIYTLNTDDKTNIKYNESYHFPICSVFKFLLVGAILDYDMHNQGFLDKKIPINQDDIGKLGYAPITAKNVGKTLTISQLNYAAILSDSPASNILVRELGGLQNLNKFIKKLGDNDTIITADEPEINYTQPHSNINKTTPKAITKDIYKLAFGNILDKKHKDIFIKYLQDNNTGANRIAFSMPKDWIIGDKTGTCGQYAATNDVAIIWPKNQQPIALGILYTNPNDKNAPSNEEIIQQAAKLIANDLTNTYK,not failed
5,DSTGKTKTAYDFSAGGISPDAPLVVLFHGLEGSSRSHYAVELMLAVRNRGWHGAVVHFRSCGGVANTAPVFYHLGDTAEIAFALDTLTARYREIYAVGVSLGGNAPAKYLGEQGKKALPHASAAVSAPVDAEAAGSRFDSGITRLLYTRYFLRTLIPKARSLQGFQTAFAAGCKTLGEFDDRFTAPLHGFADRHDYYRQTSCKPLLKHVAKPLLLLNAANDPFLPPEALPRADEASEAVTLFQPAHGGHAGFVSST,failed
6,DVDIQLVSSNNINDYLHVYDAFARPFGDSYANMVKQHIYSSYNLDDIERLVAYVNHQPVGIVDIIMTDKTIEIDGFGVLEEFQHQGIGSEIQAYVGRMANERPVILVADGKDTAKDMYLRQGYVYQGF,failed
7,DYQKEYERKLISPEEAANLVKDGMHIEIGGSANTALIIDKYLAKRKDELSHVEVGTFIDIAHYEFLKADPEQEKIKWESCFLYEPVRKCSKELGPCVHRPGVLSDAGYIAKELGGVLKGGKKYTDIAFLVTTPMDRHGFFNFGVTCTFLKSIAEGAEKVVVVVKKDMPWVNGGYDECIHISEVDYIVEDNEFPTPFLPFLPPPSKEDEMIAENIMEAGLIENGSTLQVGIGGLPNTVVRMLKEAGLKDLGIHTEMMGDGLMELMEEGIVTNQNKKLDRGKAVFSFALGTRKLYDFLDRNPEVATYPVEYTNNPFVVAQQPKMFSLNQVAQIDLMGQINSGQIGLTSPSGKIFQISGTGGQLDFVLGCFYSFDRQGKSVLATYSTYNGTSRIIPALPTGAGVTVPRSVVQYVATEWGIAYLRGLPIYKRAAAMIQLAHPDHRDWLEEEARKLGILPPKYSIPAGKADGVIYRRD,failed
8,EAGEITFTEWCQGAVDMWRANDITRSDITRATRALKPKAGAVDLLAHLQQTDIRFGILSAGVANLAARFEPYEPAFVRGNWLQFEDRRVSAIDIGVGPNEKGELLRKIRSKQNPVSITYIGDSHTDTEAFIEADTAVLFDPDERVPETAIDAADTIIESADIAEVQNCIPTA,failed
9,EAHRVLFGFVPETKEELQVMPGNIVFVLKKGNDNWATVMFNGQKGLVPCNYLEPV,not failed
10,EDAWMGTHPKYLEMMELDIGDATQVYVAFLVYLDLMESKSWHEVNCVGLPELQLICLVGTEIEGEGLQTVVPTPITASLSHNRIREILKASRKLQGDPDLPMSFTLAIVESDSTIVYYKLTD,not failed
11,EDDKLKSVEALRQKGNELFVQKDYKEAIDAYRDALTRLDTLILREKPGEPEWVELDRKNIPLYANMSQCYLNIGDLHEAEETSSEVLKREETNEKALFRRAKARIAAWKLDEAEEDLKLLLRNHPAAASVVAREMKIVTERRAEKKADSRVTYSKMFQP,not failed
12,EDSLATVKVVLIPVGQEIVIPFKVDTILKYLKDHFSHLLGIPHSVLQIRYSGKILKNNETLVQHGVKPQEIVQVEIFSTNPDLYPVRR,failed
13,EDVEFVRLNVSDLLTDPELAQSIFSLLVSAHYQTSPNDWLALLSDPSLFCWAGIDKSSRNVLTCALVSLEGQLDNELIADIQVGKRRPRGHLVPVSLTQTLCINEPAQQSCIRIMRIAVEQHYQRMHLGSKFIEYIKAFYCDLGIDYLSTSFGSTPGLNEFWLSLDF,failed
14,EDVSWIKPGQVSWEWWNGATPYGQDVTFKAGCNLETYKYFIDFASKFGIPYIIMDEGWAKSTRDPYTPNPDVDLHELIRYGKEKNVGIVLWLTWLTVEKNFDLFKTFNEWGIKGVKIDFMDRSDQWMVNYYERVAQEAARHHLFVDFHGSFKPAGLEYKYPNVLSYEGVRGMEQMGGCKPENSIYLPFMRNAVGPMDYTPGAMISMQPNIYRSERPNSASIGTRAYQMALFVIFESGLQMLADNPTLYYRNEDCTRFITQVPVTWDET,failed
15,EEHRGEEILAVFDTAFGQLLAADPAAFRVKFRKMAASAFAFYRGTAGLFYRDLTEDPDFGDQHGGAYLDERTSRVWIHGDLHAENFGTYMDSTGRLIFNVNDFDEAYVGPFTWDLKRFAASVALIGYAKAFSDEQITELVRVY,failed
